According to article PMC6039025:

Columns and labels:
Assay in all cases: fluorescence anisotropy
Settings in all cases: Hill slope fit; 10 nM 6-FAM ssDNA, 0.001-6 uM protein, 20 min at 30 C, read at room temperature; binding buffer not stated (protein storage FP buffer: 200 mM NaCl, 50 mM …)
[1] = tested on: condensin holocomplex, Smc4-A1376S-Q1377A (Saccharomyces cerevisiae (overexpressed in strain D1074))
[2] = tested on: condensin holocomplex, Smc4-L1333V-L1335A (Saccharomyces cerevisiae (overexpressed in strain D1074))
[3] = tested on: condensin holocomplex, Smc4-Q1377A (Saccharomyces cerevisiae (overexpressed in strain D1074))
[4] = tested on: condensin holocomplex, wild-type Smc4 (Saccharomyces cerevisiae (overexpressed in strain D1074))
[5] = tested on: condensin holocomplex, Smc4-L1335A (Saccharomyces cerevisiae (overexpressed in strain D1074))
[6] = tested on: condensin holocomplex, Smc4-K191M (Saccharomyces cerevisiae (overexpressed in strain D1074))
[7] = tested on: condensin holocomplex, Smc4-L1333I-L1335A (Saccharomyces cerevisiae (overexpressed in strain D1074))

Substance 6-FAM 60-nt ssDNA has a Kd [1] of 0.171 µM, a Kd [2] of 0.148 µM and a Kd [3] of 0.215 µM. The Kd [4] was 0.252 µM, the Kd [5] was 0.193 µM and the Kd [6] was 0.0767 µM. For the same substance, the Kd [7] was 0.0928 µM.
